Measurements taken from paper PMC8341435.

What was measured:
[1] = biological target: HIV-1 CAP256 SU gp140 NFL, mammalian cell-produced (HEK293) (HIV-1 (CAP256 SU virus)); assay: SEC
[2] = biological target: HIV-1 CAP256 SU gp140 NFL, mammalian cell-produced (HEK293) (HIV-1 (CAP256 SU virus)); assay: native gel or EMSA; BN-PAGE of the pooled trimer fractions on 4-12% NativePAGE Bis-Tris gels, Coomassie-stained
[3] = biological target: HIV-1 CAP256 SU gp140 NFL, plant-produced (Nicotiana benthamiana) (HIV-1 (CAP256 SU virus)); assay: SEC

| Substance | stoichiometry N [1] | stoichiometry N [2] | stoichiometry N [3] |
| --- | --- | --- | --- |
| HIV-1 CAP256 SU gp140 NFL, mammalian cell-produced (HEK293) (domain or fragment) | 3 | 3 |  |
| HIV-1 CAP256 SU gp140 NFL, plant-produced (Nicotiana benthamiana) (domain or fragment) |  |  | 3 |
